This series relates to 19-mer (SEQ ID NO:11) cleavage domain peptide.

Active MMP-9 enzyme, sequence (chain, as listed by the source): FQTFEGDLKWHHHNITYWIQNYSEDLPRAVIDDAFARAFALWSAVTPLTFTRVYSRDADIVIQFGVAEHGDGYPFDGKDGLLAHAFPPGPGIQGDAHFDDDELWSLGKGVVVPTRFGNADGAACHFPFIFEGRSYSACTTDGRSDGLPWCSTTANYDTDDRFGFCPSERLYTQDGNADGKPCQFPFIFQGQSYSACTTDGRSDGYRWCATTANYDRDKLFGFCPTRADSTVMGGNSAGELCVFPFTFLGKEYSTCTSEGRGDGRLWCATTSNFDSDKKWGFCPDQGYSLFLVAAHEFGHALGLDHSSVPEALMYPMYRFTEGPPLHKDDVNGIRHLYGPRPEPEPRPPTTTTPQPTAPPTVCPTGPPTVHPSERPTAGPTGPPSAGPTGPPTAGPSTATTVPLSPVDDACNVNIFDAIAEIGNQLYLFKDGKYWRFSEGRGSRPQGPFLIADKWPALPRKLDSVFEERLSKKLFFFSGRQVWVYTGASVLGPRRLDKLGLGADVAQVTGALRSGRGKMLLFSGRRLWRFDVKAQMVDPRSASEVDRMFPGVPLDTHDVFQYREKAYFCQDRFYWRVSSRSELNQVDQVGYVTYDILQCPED

Turning to Active MMP-9 enzyme, the “extended time course of MMP-9 catalyzed hydrolysis of collagen” value is listed as “the 19-mer (SEQ ID NO:11) effectively inhibits the MMP-9 catalyzed hydrolysis of collagen to beyond 1000 minutes”.

The values above are taken from US20030096757.
